pKd: −log10 of the molar value.

Some targets named below: HLA-A*02:02; HLA-A*02:03; HLA-A*02:06.
Holding throughout (assay): IEDB peptide-MHC binding, purified MHC/competitive/radioactivity; filed as Kd, often an IC50 or EC50 that approximates it; ≥ and ≤ were set here for values at or beyond the usual limits of such assays
The mark [1] stands for this setting: source organism: Vaccinia virus WR.
The mark [2] stands for this setting: source organism: SARS coronavirus Tor2.
Where [3] appears, read: source organism: Mammarenavirus brazilense.
[4] abbreviates: source organism: Mammarenavirus machupoense.
[5] abbreviates: source organism: Mammarenavirus whitewaterense.

Take GIIITVGMLI: the pKd in the assay with HLA-A*02:02 (setting [1]) was 5.45; with HLA-A*02:03 (setting [1]) it was 6.23; with HLA-A*02:06 (setting [1]) it was 5.95.
In the same order, the values of GINNVQSLI are 6.32, 6.42 and 5.76.
On to GLIAIVMVTI, for which the pKd was 8.12 with HLA-A*02:02 (setting [2]), 7.72 with HLA-A*02:03 (setting [2]) and 6.86 in the assay with HLA-A*02:06 (setting [2]).
GLLEWIFRA: the pKd with HLA-A*02:02 (setting [3]) is 7.66; in the assay with HLA-A*02:03 (setting [3]), 6.65; with HLA-A*02:06 (setting [3]), 8.15.
As for HTYHLENDKI, the pKd was 5.75 with HLA-A*02:02 (setting [1]), 4.86 with HLA-A*02:03 (setting [1]) and 5.70 with HLA-A*02:06 (setting [1]).
The corresponding values for IAEYIAGLKI are not above 4.54, not above 4.64 and 4.99.
In the same order, the values of IASILSLET are 5.44, 5.13 and 6.50.
In the same order, the values of IAVFDSKLI are 5.11, 4.92 and 4.92.
As to IIELPYVGDT, the pKd with HLA-A*02:02 (setting [1]) is 4.86; in the assay with HLA-A*02:03 (setting [1]) it was 5.35; in the assay with HLA-A*02:06 (setting [1]) it was 4.77.
Take IITILQDIV: the pKd with HLA-A*02:02 (setting [1]) is 6.08; with HLA-A*02:03 (setting [1]), 6.18; in the assay with HLA-A*02:06 (setting [1]) it was 6.18.
In the case of ILFQNNDINA, the values for the pKd with HLA-A*02:02 (setting [1]), with HLA-A*02:03 (setting [1]) and with HLA-A*02:06 (setting [1]) were 7.63, 6.39 and 5.50, respectively.
In the same order, the values of IMDKEQLLKI are 6.51, 6.54 and 5.87.
The corresponding values for IQKDINITHT are 5.87, 6.47 and not above 4.21.
The corresponding values for ITHTNITTLL are 5.77, 7.00 and 4.83.
Turning to IVDTVSALV, the pKd with HLA-A*02:02 (setting [2]) is 7.78; with HLA-A*02:03 (setting [2]), 6.28; in the assay with HLA-A*02:06 (setting [2]), 7.37.
For IVFGIYKDNL, the pKd was 6.73 with HLA-A*02:02 (setting [1]), 6.10 with HLA-A*02:03 (setting [1]) and 7.32 with HLA-A*02:06 (setting [1]).
Regarding IVNSVLLFL, the pKd in the assay with HLA-A*02:02 (setting [2]) is 8.15; in the assay with HLA-A*02:03 (setting [2]), 6.75; with HLA-A*02:06 (setting [2]), 7.52.
Regarding IVPDIKLDA, the negative-log Kd (pKd) with HLA-A*02:02 (setting [1]) is 5.19; with HLA-A*02:03 (setting [1]), 4.80; with HLA-A*02:06 (setting [1]), 5.46.
In the same order, the values of KIEDLINQLV are 7.06, 7.15 and 6.84.
In the same order, the values of KILSDENYLL are 7.60, 5.42 and 7.81.
The corresponding values for KIMEIVSHL are 7.10, 7.99 and 7.53.
On to KINEMVDEL, for which the values for the pKd in the assay with HLA-A*02:02 (setting [1]), in the assay with HLA-A*02:03 (setting [1]) and with HLA-A*02:06 (setting [1]) were 8.85, 7.12 and 6.50, respectively.
The corresponding values for KLLNMRDLI are 6.30, 6.48 and 7.36.
With KLLSTSNVIT, the pKd is 5.65 with HLA-A*02:02 (setting [1]), 5.47 in the assay with HLA-A*02:03 (setting [1]) and 5.81 in the assay with HLA-A*02:06 (setting [1]).
With KTVKNVDII, the pKd with HLA-A*02:02 (setting [1]) is 6.22; in the assay with HLA-A*02:03 (setting [1]), 5.75; in the assay with HLA-A*02:06 (setting [1]), 6.16.
Consider KVTGSYNLV, for which the negative-log Kd (pKd) with HLA-A*02:02 (setting [1]) was 7.18; with HLA-A*02:03 (setting [1]), 7.37; in the assay with HLA-A*02:06 (setting [1]) it was 6.71.
The corresponding values for LALKNSQAEL are 6.13, 6.48 and 5.90.
With LIDFYLCFL, the pKd in the assay with HLA-A*02:02 (setting [2]) is 8.08; in the assay with HLA-A*02:03 (setting [2]), 7.21; with HLA-A*02:06 (setting [2]), 7.96.
With LISFFGLFDI, the pKd is 7.12 with HLA-A*02:02 (setting [1]), 6.97 in the assay with HLA-A*02:03 (setting [1]) and 6.77 with HLA-A*02:06 (setting [1]).
Turning to LLFQLCTFT, the pKd was 7.65 in the assay with HLA-A*02:02 (setting [2]), 8.42 with HLA-A*02:03 (setting [2]) and 7.95 with HLA-A*02:06 (setting [2]).
Turning to LLPLTSLVI, the pKd with HLA-A*02:02 (setting [1]) was 5.62; in the assay with HLA-A*02:03 (setting [1]), 6.21; with HLA-A*02:06 (setting [1]), 5.84.
Regarding LLSAGIFGA, the pKd is 7.91 with HLA-A*02:02 (setting [2]), 7.83 in the assay with HLA-A*02:03 (setting [2]) and 7.61 with HLA-A*02:06 (setting [2]).
Regarding LMDSIFVSTM, the pKd in the assay with HLA-A*02:02 (setting [1]) is 8.44; with HLA-A*02:03 (setting [1]) it was 8.09; with HLA-A*02:06 (setting [1]), 6.21.
Turning to LNKSDSSWAV, the pKd with HLA-A*02:02 (setting [4]) was 6.26; with HLA-A*02:03 (setting [4]) it was 5.28; with HLA-A*02:06 (setting [4]) it was 5.66.
Regarding LVSDCASTI, the results for the pKd in the assay with HLA-A*02:02 (setting [1]), with HLA-A*02:03 (setting [1]) and with HLA-A*02:06 (setting [1]) were 7.31, 7.76 and 7.21, respectively.
As to MIHKTYIDV, the negative logarithm of the Kd (pKd) with HLA-A*02:02 (setting [1]) was 5.85; in the assay with HLA-A*02:03 (setting [1]), 7.82; in the assay with HLA-A*02:06 (setting [1]), 6.90.
Take MLLNVQTLI: the values for the negative-log Kd (pKd) with HLA-A*02:02 (setting [1]), with HLA-A*02:03 (setting [1]) and with HLA-A*02:06 (setting [1]) were 9.77, 9.60 and 9.66, respectively.
The corresponding values for MLPESDLDKV are 8.49, 5.75 and 8.35.
In the same order, the values of MMNERDVSV are 9.36, 9.57 and 7.19.
The corresponding values for NAILHNIYRL are 5.25, 4.99 and 6.24.
Take NASKTINALV: the pKd with HLA-A*02:02 (setting [1]) is 6.12; with HLA-A*02:03 (setting [1]) it was 6.56; in the assay with HLA-A*02:06 (setting [1]), 5.49.
The corresponding values for NIPELKHGLL are 5.64, 5.57 and 5.91.
The corresponding values for NQLDSSNKSM are 5.75, not above 4.52 and 6.20.
In the same order, the values of NTFVNFNSV are 5.30, 7.00 and 9.46.
PASISSVLTI: the negative logarithm of the Kd (pKd) was 5.87 in the assay with HLA-A*02:02 (setting [1]), 7.08 with HLA-A*02:03 (setting [1]) and 5.81 in the assay with HLA-A*02:06 (setting [1]).
For PLISILMIFI, the values for the pKd in the assay with HLA-A*02:02 (setting [1]), with HLA-A*02:03 (setting [1]) and in the assay with HLA-A*02:06 (setting [1]) were 6.36, 6.11 and 5.62, respectively.
Regarding PTEMVDVSMM, the pKd in the assay with HLA-A*02:02 (setting [1]) is 4.94; with HLA-A*02:03 (setting [1]), not above 4.15; in the assay with HLA-A*02:06 (setting [1]), 4.92.
The corresponding values for RASTTENAA are not above 4.57, not above 4.18 and 4.92.
The corresponding values for SLDQTHIKTI are 5.84, 7.84 and 5.61.
On to SLTQVKELGI, for which the negative logarithm of the Kd (pKd) with HLA-A*02:02 (setting [1]) is 8.01; with HLA-A*02:03 (setting [1]), 7.12; with HLA-A*02:06 (setting [1]) it was 6.80.
On to SMWALVISV, for which the pKd with HLA-A*02:02 (setting [2]) is 8.21; with HLA-A*02:03 (setting [2]), 8.35; in the assay with HLA-A*02:06 (setting [2]), 9.10.
As to SMYTRLRQDT, the pKd is 5.18 with HLA-A*02:02 (setting [1]), 5.94 with HLA-A*02:03 (setting [1]) and not above 4.37 in the assay with HLA-A*02:06 (setting [1]).
In the same order, the values of TAIRAGYSIV are 5.17, 7.14 and 5.07.
The corresponding values for TIVSRSSRGV are 5.33, 7.95 and 5.43.
As for TLNTLITLI, the pKd with HLA-A*02:02 (setting [1]) was 9.00; with HLA-A*02:03 (setting [1]), 9.22; with HLA-A*02:06 (setting [1]) it was 6.03.
For TVDFTDCRTI, the pKd with HLA-A*02:02 (setting [1]) was not above 4.50; with HLA-A*02:03 (setting [1]) it was 4.98; in the assay with HLA-A*02:06 (setting [1]), 4.97.
In the case of TVIKTLLEV, the values for the negative logarithm of the Kd (pKd) with HLA-A*02:02 (setting [5]), with HLA-A*02:03 (setting [5]) and with HLA-A*02:06 (setting [5]) were 5.70, 7.28 and 7.78, respectively.
Turning to VAMLLTHGA, the figures for the pKd with HLA-A*02:02 (setting [1]), in the assay with HLA-A*02:03 (setting [1]) and in the assay with HLA-A*02:06 (setting [1]) were 5.15, 6.20 and 6.14, respectively.
In the same order, the values of VQEFIFSAL are 6.38, 6.33 and 6.70.

The values above are taken from the Immune Epitope Database (IEDB).
